Test [1] deals with T1, SARS-COV-2 RBD-MMH (SARS-COV-2 RBD extracellular domain with C-terminal myc-myc-hexahistidine tag) (SARS-CoV-2). Briefly: SPR 37C, mAb captured, pH 7.4 vs pH 6.0.
Test [2] has as its target SARS-CoV-2 RBD.mmh (Spike amino acids Arg319-Phe541 with C-terminal myc-myc-6-Histidine tag) (SARS-CoV-2, UniProt P0DTC2 319-541).
Test [3] addresses T1, SARS-COV-2 RBD-MMH (SARS-COV-2 RBD …).

“And” between values parts separate entries of the source, which are not always exact repeats. Equal values may be shown once.

B1: mAb14285 (antibody, V domains shown)
VH: QVQLVQSGAEVKKPGASVKVSCKASGYTFTGYFIHWVRQAPGQGLEWMGWISPISGGTNYAQKFQGRVTVTRDTSITTAYMELSRLTSDDTAVYHCAREGGTWKGDFDYWGQGTLVTVSS
VL: QSALTQPASVSGSPGQSITISCTGTSSDVESYNLVSWYQQHPGKAPKLMIYEGSKRPSGVSNRFSGSKSGNTASLTISGLQAEDEADYYCSSYAGSSTWVFGGGTKLTVLG
For orientation: IC50 means the concentration that inhibits the measured activity by half. A higher IC50 goes with weaker potency in that assay. As a reminder, the koff is the first-order rate constant of dissociation. Low values mean slow dissociation, high ones fast dissociation. For orientation: t½ means the time in which the quantity being followed falls by half. A high value points to slow decline. Turning to B1, the “t½ Ratio of pH 7.4 to pH 6.0” value in test [1] is 0.5. This molecule returned an IC50 in test [2] of 1700 pM. Further, in test [3], the koff was found to be 0.0144 s⁻¹, the “t½ at pH 6.0” value was found to be 0.8 min and the “t½ at pH 7.4” value worked out at 0.4 min.

B2: mAb15159 (antibody, V domains shown)
VH: EVQLVESGGGLVQPGGSLRLSCAASGITVSSNYMTWVRQAPGKGLEWVSLIYSGGSTFYADSVRGRFTISRDNSKNTLYLQMNSLRAEDTAVYYCARDLVVYGMDVWGQGTTVTVSS
VL: DIQLTQSPSSLSASVGDRVTITCRASQGISSYLAWYQQKPGKAPKLLIYAASTLQSGVPSRFSGSGSGTDFTLTISSLQPEDFATYYCQHLNSDPHTFGQGTKLEIKR
Consider B2, for which, in test [1], the “t½ Ratio of pH 7.4 to pH 6.0” value came to 1.8. The midpoint of inhibition in test [2], the IC50, lay at 156 pM. Moreover, in test [3], the koff turned out to be 0.000412 s⁻¹, the “t½ at pH 6.0” value came out at 28.1 min and the “t½ at pH 7.4” value was found to be 50 min.

B3: mAb14313 (antibody, V domains shown)
VH: EVQLVESGGGLVQPGRSLRLSCVASGFTFDDSAMHWVRQPPGKGLEWVSGISWNSGIIGYAESVKGRFIISRDNAKNSLFLHMRGLRPEDTAVYYCARDRLELSYYYYGMDVWGQGTTVTVSS
VL: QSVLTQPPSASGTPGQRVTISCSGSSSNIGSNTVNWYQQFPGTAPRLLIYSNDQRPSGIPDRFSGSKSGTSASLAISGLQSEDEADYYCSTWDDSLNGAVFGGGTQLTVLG
In the case of B3, in test [1], the “t½ Ratio of pH 7.4 to pH 6.0” value amounted to 1.6. This molecule showed a half-inhibitory concentration (IC50) in test [2] of 16400 pM. Also, in test [3], the koff is 0.00251 s⁻¹ and 0.0041 s⁻¹; the “t½ at pH 6.0” value stood at 2.8 min; the “t½ at pH 7.4” value is 4.6 min.

B4: mAb14294 (antibody, V domains shown)
VH: EVQLVESGGGLVQPGGSLRLSCAASGFTFSNHWMDWVRQAPGKGLVWVSRINSDGSSTDYADSVRGRFTMSRDNAKNTLYLQMSSLRAEDTAVYYCAREGMIFGAVIIPGWYFDLWGRGALVTVSS
VL: EIVLTQSPGTLSLSPGERATLSCRASQSVSSSQLAWYQQKPGQAPRLLIYGASSRATGIPDRFSGSGSGTDFTLTISRLEPEDFAVYYCQQYDSFGQGTKLEIKR
Take B4: the “t½ Ratio of pH 7.4 to pH 6.0” value in test [1] was 0.6. 244 pM corresponded to half-maximal inhibition in test [2] (IC50). Moreover, in test [3], the koff is 0.000565 s⁻¹, the “t½ at pH 6.0” value was found to be 20.5 min and the “t½ at pH 7.4” value was found to be 12.6 min.

B5: mAb14284 (antibody, V domains shown)
VH: QITLKESGPTLVKPTQTLTLTCTFSGFSFSTSGVGVGWIRQPPGKTLEWLALIYWDDDKRYSPSLKSRLTITKDTSKNQVVLTMTNMDPVDTATYFCAHHGIPTIFGYWGQGALVTVSS
VL: QSALTQPASVSGSPGQSITISCTGTSSDLGVFNYVSWYQQHPGKAPKLMIYEVTNRPSGVSNRFSGSKSGNTASLTISGLQAEDEADYYCSSYTTSSTVFGGGTKLTVLG
Consider B5, for which, in test [1], the “t½ Ratio of pH 7.4 to pH 6.0” value came out at 0.9. For the same molecule, in test [2], the IC50 came out at 367 pM. Moreover, in test [3], the koff is 0.000574 s⁻¹, the “t½ at pH 6.0” value worked out at 20.1 min and the “t½ at pH 7.4” value came out at 18.5 min.

B6: mAb14292 (antibody, V domains shown)
VH: EVQLVESGGGLVQPGGSLRLSCVASGFAFSTYEMNWVRQAPGKGLEWVSYISSSGSTIYYADSVKGRLTISRDNVKNSLYLQMNSLRVEDTAIYYCARDAIRNNDILTDPATFDPWGQGTLVTVSS
VL: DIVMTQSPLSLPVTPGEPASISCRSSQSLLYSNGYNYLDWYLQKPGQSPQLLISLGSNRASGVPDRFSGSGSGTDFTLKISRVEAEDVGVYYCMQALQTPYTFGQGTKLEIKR
With B6, in test [1], the “t½ Ratio of pH 7.4 to pH 6.0” value was found to be 1.3. Also, in test [2], inhibition was half-maximal at 254 pM (IC50). In addition, in test [3], the koff is 0.00141 s⁻¹ and 0.00178 s⁻¹; the “t½ at pH 6.0” value stood at 6.5 min; the “t½ at pH 7.4” value amounted to 8.2 min.

B7: mAb15160 (antibody, V domains shown)
VH: EVQLVESGGGLVQPGGSLRLSCSASGFTFSRYAMYWVRQAPGKGLEYVSAISSDGGSTYDADSVKGRFTISRANSKNTLYLQMSSLRAEDTAVYYCVKGLRELLYYYYGMDVWGQGTTVTVSS
VL: DIQMTQSPSSLSASVGDRVTITCRAGQSISSFLNWYQQKPGKAPKLLIYAASSLQSGVPSRFSGSGSGTDFTLTISSLQPEDFATYYCQQSYITPFTFGPGTKVDIKR
As for B7, in test [1], the “t½ Ratio of pH 7.4 to pH 6.0” value worked out at 1.3. The IC50 in test [2] was found to be 204 pM. Further, in test [3], the koff was 0.00283 s⁻¹, the “t½ at pH 6.0” value stood at 4.1 min and the “t½ at pH 7.4” value was 5.3 min.

B8: mAb14312 (antibody, V domains shown)
VH: EVQLVESGGGLVQPGGSLRLSCAASGFTVSRSYMTWVRQAPGKGLEWVSVIFTGGRTDHADSVKGRFTISRHNSKNTLYLQMNSLRTEDTAVYYCARVAIVGATGAFDIWGQGTMVTVSS
VL: QSVLTQPPSVSGAPGQRVTISCTGSSSNIGAGDDVHWYQQLPGTAPKLLIYGNSNRPSGVPDRFSGSKSGTSASLAITGLQAEDEADYYCQSYDSSLSGSVVFGGGTKLTVLG
As to B8, in test [1], the “t½ Ratio of pH 7.4 to pH 6.0” value amounted to 2.1. The molecule also gave an IC50 in test [2] of 134 pM. Besides, in test [3], the koff was 0.00177 s⁻¹, the “t½ at pH 6.0” value amounted to 6.5 min and the “t½ at pH 7.4” value is 13.5 min.

B9: mAb14315 (antibody, V domains shown)
VH: QVQLVQSGAEVKKPGSSVKVSCKASGDTFSTYAINWVRQAPGQGLEWMGRFIHIFGTANYAQKFQGRVTITADESTSTAYMELRSLRSEDTAVYYCARDGVDYGDYRPDYWGQGTLVTVSS
VL: EIVLTQSPGTLSLSPGERATLSCRASQSVSSNYLAWYQQKPGQAPRLLIYGASSRATGIPERFSGSGSGTDFTLTISRLEPEDFAVYYCQQYGSSLYTFGQGTKLEIKR
As for B9, in test [1], the “t½ Ratio of pH 7.4 to pH 6.0” value amounted to 1. The molecule further gave an IC50 in test [2] of 17200 pM. Further, in test [3], the koff came out at 0.000946 s⁻¹, the “t½ at pH 6.0” value turned out to be 12.2 min and the “t½ at pH 7.4” value worked out at 11.8 min.

B10: mAb14289 (antibody, V domains shown)
VH: QVQLVQSGPEVKKPGASVKVSCKASGYTFTSYAISWVRQAPGQGLEWMGWISAYNGNTNYAQKLQGRVTMTTDTFTSTAYMELRSLRSDDTAVYYCAVPADHITFDYWGQGTLVTVSS
VL: EIVLTQSPGTLSLSPGERATLSCRASQSVSSYLAWYQQKPGQAPRLLIHGASSRATGIPDRFSGSGSGTDFTLTISRLEPEDFAVYYCQQYGSSFLTFGGGTKVEIKR
For B10, the “t½ Ratio of pH 7.4 to pH 6.0” value in test [1] came out at 1.5. The IC50 in test [2] was determined as 378 pM. Besides, in test [3], the dissociation rate constant (koff) is 0.00272 s⁻¹, the “t½ at pH 6.0” value was 4.2 min and the “t½ at pH 7.4” value came to 6.2 min.

B11: mAb14283 (antibody, V domains shown)
VH: QVQLQESGPGLVKPSGTLSLTCDVSGGSISSNNWWSWVRQRPGKGLQWIGEIYHNENTNYNPSLKSRVIMSIDKSKNQFSLKLTSVTAADTAVYYCARGDVLDWFDPWGQGTLVTVSS
VL: QSALTQPASVSGSPGQSTTISCTGTSSDVGGYNYVSWYQQYPGKAPKLMIYDVTNRPSGVSHRFSGSKSGNTASLTISGLQAEDEADYYCSSYTSSSTVIFGGGTKLTVLG
For B11, the “t½ Ratio of pH 7.4 to pH 6.0” value in test [1] amounted to 1.2. This molecule also had an IC50 in test [2] of 373 pM. Moreover, in test [3], the koff was determined as 0.002 s⁻¹, the “t½ at pH 6.0” value is 5.8 min and the “t½ at pH 7.4” value is 6.9 min.

B12: mAb14286 (antibody, V domains shown)
VH: QVQLVQSGAEVKKPGASVKVSCKASGYTFTDYFIHWVRQAPGQGLEWMGWINPTSGGTNYAQKFRGRVTMTRDTSISTAYVELSRLRSDDTALYYCARDLPFYSDTKQFDYWGQGTLVTVSS
VL: QSALTQPASVSGYPGQSITISCTGTSSDVGGYNYVSWYQQHPGKAPKLMIFDVSNRPSGVSNRFSGSKSGNTASLTFSGLQAEDEADYYCSSYTSSSTLVFGGGTKLTVLG
Take B12: the “t½ Ratio of pH 7.4 to pH 6.0” value in test [1] was found to be 1. This molecule also yielded a 50% inhibitory concentration (IC50) in test [2] of 641 pM. In test [3], the koff worked out at 0.00999 s⁻¹, the “t½ at pH 6.0” value came out at 1.2 min and the “t½ at pH 7.4” value was 1.2 min.

B13: mAb15157 (antibody, V domains shown)
VH: EVQLVESGGALVQPGGSLRLSCAASGFPFTIYAMTWVRQAPGKGLEWVSVITGSGDSTYYADSVKGRFTISRDNSKNTLYLQMNSLRAEDTAVYYCVKTGEGFFYYYYGMDVWGQGTTVTVSS
VL: QSVLTQPPSVSAAPGQKVTISCSGSSSNIGNSYISWYQQLPGTAPKLLIYVNNKRPSGIPDRFSGSKSGTSATLGITGLQTGDEADYYCGTWDSSLSAGVFGSGTKVTVLG
Turning to B13, the “t½ Ratio of pH 7.4 to pH 6.0” value in test [1] worked out at 1.9. The molecule further came in with an IC50 in test [2] of 357 pM. In test [3], the koff was 0.00766 s⁻¹, the “t½ at pH 6.0” value is 1.5 min and the “t½ at pH 7.4” value was 2.9 min.

B14: mAb15158 (antibody, V domains shown)
VH: EVQLVESGGGLVQPGGSLRLSCAASGFSFSSNWMSWVRQAPGKGLEWVGNINQDGSEKYYVDSVEGRFTISRDNAKKSLYLQMNSLRAEDTAVYYCARDLGVLWFGDFVDWGQGALVTVSS
VL: DIQMTQSPSSLSASVGDRVTITCRASQAISNSLAWYQQKPGKAPKLLLYAASTLESGVPSRFSGSGSGTDYTLTISSLQPEDFATYYCLQYYGSPRTFGQGTKVEIKR
As to B14, in test [1], the “t½ Ratio of pH 7.4 to pH 6.0” value was 0.9. Further, the IC50 in test [2] was 309 pM. In test [3], the koff was 0.00029 s⁻¹, the “t½ at pH 6.0” value is 40.1 min and the “t½ at pH 7.4” value is 37 min.

B15: mAb14282 (antibody, V domains shown)
VH: QVQLVQSGAEVKKPGASVKVSCKASGYIFTDHYMHWVRQAPGQGLEWMGWINPNSGATNYAQNFQGRVTMTRDTSIITVYMELSRLRSDDTAVYYCARDSSPYMIRYTMDVWGQGTTITVSS
VL: QSALTQPASVSGSPGQSITISCTGTSSDVGSYNLVSWYQQHPGKAPKLMIYELTKRPSGVSNRFSGSKSGNTASLTISGLQAEDEADYYCSSYRGSVTDVVFGGGTKLTVLG
With B15, in test [1], the “t½ Ratio of pH 7.4 to pH 6.0” value came to 0.8. The same molecule came in with an IC50 in test [2] of 502 pM. Further, in test [3], the koff was 0.00985 s⁻¹, the “t½ at pH 6.0” value amounted to 1.2 min and the “t½ at pH 7.4” value was 0.9 min.

B16: mAb15156 (antibody, V domains shown)
VH: QLQLQESGPGLVKSSETLSLTCTVSASITGSTYYWGWIRQPPGKGLEWIGSIYYSGTTYYKASLKSRVTISVDTSKNQFSLKLTSVTVADTAVYYCVSHLLGNYHKYGMDVWGQGTTVTVSS
VL: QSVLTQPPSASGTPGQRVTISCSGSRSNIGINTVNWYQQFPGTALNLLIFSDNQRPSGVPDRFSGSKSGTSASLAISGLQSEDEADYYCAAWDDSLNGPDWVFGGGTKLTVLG
For the molecule B16, the “t½ Ratio of pH 7.4 to pH 6.0” value in test [1] came to 1.4. Also, the IC50 in test [2] came to 269 pM. For the same molecule, in test [3], the koff amounted to 0.0097 s⁻¹, the “t½ at pH 6.0” value stood at 1.2 min and the “t½ at pH 7.4” value turned out to be 1.7 min.

The values are drawn from patent US20260069689A1 (Regeneron, published 2026).
